Source: the supplement of paper PMC11246515
± gives the standard deviation of the averaged measurements.

Test: total protein half-life in vivo (active degradation + dilution); higher = more stable protein
[1] = E. coli NCM3722 delta-clpP delta-lon delta-hslV, growth: N-lim chemostat, doubling time 6 h
[2] = E. coli NCM3722 delta-clpP, growth: N-lim chemostat, doubling time 6 h
[3] = E. coli NCM3722 delta-hslV, growth: N-lim chemostat, doubling time 6 h
[4] = E. coli NCM3722 delta-smpB, growth: N-lim chemostat, doubling time 6 h
[5] = wild type E. coli NCM3722, growth: C-lim chemostat, doubling time 3 h
[6] = wild type E. coli NCM3722, growth: C-lim chemostat, doubling time 6 h
[7] = wild type E. coli NCM3722, growth: C-lim chemostat, doubling time 12 h
[8] = wild type E. coli NCM3722, growth: N-lim chemostat, doubling time 6 h
[9] = wild type E. coli NCM3722, growth: N-lim chemostat, doubling time 12 h
[10] = wild type E. coli NCM3722, growth: P-lim chemostat, doubling time 6 h
[11] = wild type E. coli NCM3722, growth: P-lim chemostat, doubling time 12 h
[12] = E. coli NCM3722 delta-lon, growth: N-lim chemostat, doubling time 6 h

Sequence	total protein half-life in vivo [1] [h]	total protein half-life in vivo [2] [h]	total protein half-life in vivo [3] [h]	total protein half-life in vivo [4] [h]	total protein half-life in vivo [5] [h]	total protein half-life in vivo [6] [h]	total protein half-life in vivo [7] [h]	total protein half-life in vivo [8] [h]	total protein half-life in vivo [9] [h]	total protein half-life in vivo [10] [h]	total protein half-life in vivo [11] [h]	total protein half-life in vivo [12] [h]
MESGHRFDAQTLHSFIQAVFRQMGSEEQEAKLVADHLIAANLAGHDSHGIGMIPSYVRSWSQGHLQINHHAKTVKEAGAAVTLDGDRAFGQVAAHEAMALGIEKAHQHGIAAVALHNSHHIGRIGYWAEQCAAAGFVSIHFVSVVGIPMVAPFHGRDSRFGTNPFCVVFPRKDNFPLLLDYATSAIAFGKTRVAWHKGVPVPPGCLIDVNGVPTTNPAVMQESPLGSLLTFAEHKGYALAAMCEILGGALSGGKTTHQETLQTSPDAILNCMTTIIINPELFGAPDCNAQTEAFAEWVKASPHDDDKPILLPGEWEVNTRRERQKQGIPLDAGSWQAICDAARQIGMPEETLQAFCQQLAS	4.97 ± 0.25	3.99 ± 0.17	4.28 ± 0.11	4.214 ± 0.024	3.14 ± 0.059	5.02 ± 0.63	8.45 ± 0.26	4.46 ± 0.42	7.26 ± 1.5	5.58 ± 0.14	10.3 ± 1.2	–
MSTLRLLISDSYDPWFNLAVEECIFRQMPATQRVLFLWRNADTVVIGRAQNPWKECNTRRMEEDNVRLARRSSGGGAVFHDLGNTCFTFMAGKPEYDKTISTSIVLNALNALGVSAEASGRNDLVVKTVEGDRKVSGSAYRETKDRGFHHGTLLLNADLSRLANYLNPDKKKLAAKGITSVRSRVTNLTELLPGITHEQVCEAITEAFFAHYGERVEAEIISPNKTPDLPNFAETFARQSSWEWNFGQAPAFSHLLDERFTWGGVELHFDVEKGHITRAQVFTDSLNPAPLEALAGRLQGCLYRADMLQQECEALLVDFPEQEKELRELSAWMAGAVR	4.61 ± 0.64	–	4.05 ± 0.39	4.227 ± 0.0072	2.93 ± 0.24	5.88 ± 0.59	11 ± 0.56	4.8 ± 0.4	7.13 ± 0.78	5.78 ± 0.2	11.9 ± 0.67	5.74 ± 1.3
MKCSWREGNKIQLLENGEQYYPAVFKAIGEAQERIILETFIWFEDDVGKQLHAALLAAAQRGVKAEVLLDGYGSPDLSDEFVNELTAAGVVFRYYDPRPRLFGMRTNVFRRMHRKIVVIDARIAFIGGLNYSAEHMSSYGPEAKQDYAVRLEGPIVEDILQFELENLPGQSAARRWWRRHHKAEENRQPGEAQVLLVWRDNEEHRDDIERHYLKMLTQARREVIIANAYFFPGYRFLHALRKAARRGVRIKLIIQGEPDMPIVRVGARLLYNYLVKGGVQVFEYRRRPLHGKVALMDDHWATVGSSNLDPLSLSLNLEANVIIHDRHFNQTLRDNLNGIIAADCQQVDETMLPKRTWWNLTKSVLAFHFLRHFPALVGWLPAHTPRLAQVDPPAQPTMETQDRVETENTGVKP [P0AA84]	5.09 ± 0.17	4.47 ± 0.2	3.731 ± 0.026	3.99 ± 0.16	2.78 ± 0.092	5.37 ± 2.1	5.9 ± 1.9	3.75 ± 0.25	6.19 ± 0.53	5.17 ± 1.5	9.94 ± 4.7	4.02 ± 0.65
MMSLAWPLFRVTEQAALAAWPQTGCGDKNKIDGLAVTAMRQALNDVAFRGRVVIGEGEIDHAPMLWIGEEVGKGDGPEVDIAVDPIEGTRMVAMGQSNALAVMAFAPRDSLLHAPDMYMKKLVVNRLAAGAIDLSLPLTDNLRNVAKALGKPLDKLRMVTLDKPRLSAAIEEATQLGVKVFALPDGDVAASVLTCWQDNPYDVMYTIGGAPEGVISACAVKALGGDMQAELIDFCQAKGDYTENRQIAEQERKRCKAMGVDVNRVYSLDELVRGNDILFSATGVTGGELVNGIQQTANGVRTQTLLIGGADQTCNIIDSLH	3.96	–	–	–	–	–	–	–	–	–	–	–
MMKTMRIAAIPGDGIGKEVLPEGIRVLQAAAERWGFALSFEQMEWASCEYYSHHGKMMPDDWHEQLSRFDAIYFGAVGWPDTVPDHISLWGSLLKFRREFDQYVNLRPVRLFPGVPCPLAGKQPGDIDFYVVRENTEGEYSSLGGRVNEGTEHEVVIQESVFTRRGVDRILRYAFELAQSRPRKTLTSATKSNGLAISMPYWDERVEAMAENYPEIRWDKQHIDILCARFVMQPERFDVVVASNLFGDILSDLGPACTGTIGIAPSANLNPERTFPSLFEPVHGSAPDIYGKNIANPIATIWAGAMMLDFLGNGDERFQQAHNGILAAIEEVIAHGPKTPDMKGNATTPQVADAICKIILR	4.1 ± 1.1	2.64 ± 0.46	2.66 ± 0.067	2.68 ± 0.02	2.6 ± 0.4	4.42 ± 0.51	7.5 ± 1.2	2.6337 ± 0.002	3.89 ± 0.11	4.47 ± 0.67	11.1 ± 0.13	4.83 ± 2.4
